The target in one test is PD-L1. Kind of test: ELISA; row PDL1-Fc; well 1 of 3. Summed up:
(§1)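 Binding of the purified camel VHH nanobodies is given as the ELISA signal. The immobilised recombinant proteins included B7H3 fusion proteins and proteins other than B7H3. The nanobodies were isolated beforehand by phage panning on recombinant B7H3-Fc.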
(In general: In an ELISA, binding on a coated surface is turned into a signal by an enzyme label.)

In a further test the target is B7H3 R&D. Kind of test: ELISA; row B7H3 R&D; well 1 of 3. Summed up: as §1
The target in test [1] is T1, monkey B7H3-His (monkey).
T1 chain: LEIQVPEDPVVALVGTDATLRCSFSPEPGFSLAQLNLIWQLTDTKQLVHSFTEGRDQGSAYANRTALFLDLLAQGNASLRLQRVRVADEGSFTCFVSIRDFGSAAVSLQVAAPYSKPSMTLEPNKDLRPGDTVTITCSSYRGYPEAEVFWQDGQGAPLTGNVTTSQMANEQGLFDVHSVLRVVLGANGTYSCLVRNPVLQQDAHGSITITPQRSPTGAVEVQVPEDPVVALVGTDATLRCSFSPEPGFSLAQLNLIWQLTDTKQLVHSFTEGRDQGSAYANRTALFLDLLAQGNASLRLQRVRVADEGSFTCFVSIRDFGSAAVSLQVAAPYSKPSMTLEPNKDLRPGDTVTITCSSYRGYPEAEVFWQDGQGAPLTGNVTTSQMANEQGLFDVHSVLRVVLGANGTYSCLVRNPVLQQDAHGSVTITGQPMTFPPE
Kind of test: ELISA; row Monkey; well 3 of 3. Summed up: as §1

Test [2] concerns the target T1, monkey B7H3-His. Kind of test: ELISA; row Monkey; well 1 of 3. Summed up:
as §1

The target of a further test is HN3-Fc. Kind of test: ELISA; row HN3-Fc; well 3 of 3. Summed up: as §1
Test [3] has as its target T2, recombinant human B7H3-Fc protein (human, UniProt Q5ZPR3 29-466, limits assumed).
T2 construct: 154 kDa non-reduced, 77 kDa reduced; also called hB7H3-Fc; not shown: Fc part
T2 sequence (looked up): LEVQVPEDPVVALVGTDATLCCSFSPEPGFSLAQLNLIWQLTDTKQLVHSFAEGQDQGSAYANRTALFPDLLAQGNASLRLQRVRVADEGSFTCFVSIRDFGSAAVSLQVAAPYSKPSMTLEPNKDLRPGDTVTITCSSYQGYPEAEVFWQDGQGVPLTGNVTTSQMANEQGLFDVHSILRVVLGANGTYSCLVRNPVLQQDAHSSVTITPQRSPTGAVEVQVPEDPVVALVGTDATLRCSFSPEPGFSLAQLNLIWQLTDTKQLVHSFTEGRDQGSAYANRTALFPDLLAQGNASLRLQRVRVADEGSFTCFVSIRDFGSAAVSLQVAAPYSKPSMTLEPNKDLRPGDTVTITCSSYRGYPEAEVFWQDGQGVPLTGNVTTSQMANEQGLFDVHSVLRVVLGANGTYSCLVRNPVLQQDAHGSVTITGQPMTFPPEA
Kind of test: BLI (Octet), human B7H3-Fc; same value printed for 660, 132 and 26.4 nM. The protocol: FIG. 12: Kinetics of RWC4 on human B7H3-Fc. The association/dissociation properties of RWC4 were measured on the Octet system (Creative Biolabs) using recombinant human B7H3-Fc protein.
(§2) The association/dissociation properties of RWC4 and RWG4 were measured on the Octet system (Creative Biolabs) using either recombinant human B7H3-Fc protein or recombinant mouse B7H3-His protein.
On the technique in general: Biolayer interferometry detects binding as a change in optical thickness at a sensor tip.

The next test deals with T3, human B7H3 (human, UniProt Q5ZPR3 29-466, limits assumed).
T3 construct: also called human B7H3 protein
T3 sequence (looked up): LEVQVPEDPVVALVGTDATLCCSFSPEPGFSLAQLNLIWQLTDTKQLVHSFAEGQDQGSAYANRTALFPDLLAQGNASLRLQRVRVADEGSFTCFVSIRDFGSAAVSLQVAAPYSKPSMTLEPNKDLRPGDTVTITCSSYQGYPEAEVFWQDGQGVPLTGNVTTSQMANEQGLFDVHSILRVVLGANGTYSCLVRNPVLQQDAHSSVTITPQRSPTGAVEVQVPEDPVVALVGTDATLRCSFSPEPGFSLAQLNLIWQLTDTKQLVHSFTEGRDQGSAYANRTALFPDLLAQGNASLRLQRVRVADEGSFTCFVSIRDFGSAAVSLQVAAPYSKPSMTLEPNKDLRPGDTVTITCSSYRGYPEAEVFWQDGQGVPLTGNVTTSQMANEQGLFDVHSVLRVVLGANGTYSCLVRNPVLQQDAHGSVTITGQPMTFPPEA
Kind of test: phage ELISA, cross-species. Put shortly: (§3)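 For 3 rounds, recombinant B7H3-Fc protein served as the panning target for camel VHH phage drawn from eight individual camels' libraries. Each entry gives the ELISA signal for binding of selected phage to an immobilised antigen, either human or other-species B7H3 or a control protein, measured by phage ELISA.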

For test [4], the target named is T1, monkey B7H3-His. Kind of test: phage ELISA, cross-species. Put shortly:
as §3

The target of the next test is Non-relevant antigen. Kind of test: phage ELISA, cross-species. Summed up: as §3
For another test, the target named is T4, rat B7H3-His (rat, UniProt Q7TPB4 29-244, limits assumed).
T4 construct: not shown: His tag
T4 sequence (looked up): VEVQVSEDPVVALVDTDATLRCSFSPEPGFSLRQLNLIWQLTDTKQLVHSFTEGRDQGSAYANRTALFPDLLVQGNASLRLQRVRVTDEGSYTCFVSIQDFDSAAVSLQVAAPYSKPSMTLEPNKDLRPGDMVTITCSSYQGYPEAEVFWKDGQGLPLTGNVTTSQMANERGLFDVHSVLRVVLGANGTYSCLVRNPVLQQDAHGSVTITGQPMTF
Kind of test: phage ELISA, cross-species. Put shortly:
as §3

For a further test, the target named is T5, mouse B7H3-His (mouse, UniProt Q8VE98 29-244, limits assumed).
T5 construct: also called recombinant mouse B7H3-His protein; not shown: His tag
T5 sequence (looked up): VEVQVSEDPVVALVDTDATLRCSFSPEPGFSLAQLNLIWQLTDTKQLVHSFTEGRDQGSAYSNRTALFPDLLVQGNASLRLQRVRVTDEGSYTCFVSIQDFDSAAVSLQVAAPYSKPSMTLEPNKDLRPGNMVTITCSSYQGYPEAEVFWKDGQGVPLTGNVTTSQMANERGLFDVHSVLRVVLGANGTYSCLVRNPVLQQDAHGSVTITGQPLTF
Kind of test: phage ELISA, cross-species. Put shortly:
as §3

In test [5] the target is T2, recombinant human B7H3-Fc protein. Kind of test: BLI (Octet), human B7H3-Fc; same value printed for 660, 528, 264, 198, 66 and 33 nM. As for the experimental part:
FIG. 13: Kinetics of RWG4 on human B7H3-Fc. The association/dissociation properties of RWG4 were measured on the Octet system (Creative Biolabs) using recombinant human B7H3-Fc protein.
as §2

Chain of PD-L1 (Q9NZQ7 whole entry, the tested form may be a part): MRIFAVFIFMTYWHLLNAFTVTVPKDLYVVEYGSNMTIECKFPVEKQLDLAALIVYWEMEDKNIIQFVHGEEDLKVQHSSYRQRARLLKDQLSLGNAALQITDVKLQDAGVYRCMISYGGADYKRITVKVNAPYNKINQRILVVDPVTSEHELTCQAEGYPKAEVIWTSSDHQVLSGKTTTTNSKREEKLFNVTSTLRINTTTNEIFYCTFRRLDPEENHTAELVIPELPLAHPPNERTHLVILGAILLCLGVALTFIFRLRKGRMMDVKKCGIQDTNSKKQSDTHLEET

B1: RWC4 (VHH)
VHH: EVQLVESGGGSVQAGGSLRLSCVASEDSTSAMCMGWFRQAPGKEREGVACINPTGEVTWYGDSVKGRFTISRDTVKKIVYLQMNSLKPEDTAMYYCAARVTYGGDWSTDTDYEYWGQGTQVTVSS
notes: Camel VHH; tag not described; also called camel antibody RWC4
Usually Kd stands for a measure of binding affinity in units of concentration. Usually koff stands for the first-order rate constant of dissociation. As a reminder, the kon is the second-order rate constant of association. For B1, the “ELISA reading (name not given)” value in the test with PD-L1 amounted to 0.0625; in the test with B7H3 R&D it was 0.132; with monkey B7H3-His [1], 1.04; in the test with monkey B7H3-His [2], 1; with HN3-Fc, 0.0467. The dissociation constant (Kd) in test [3] is 3.8 nM. Moreover, the dissociation rate constant (koff) in test [3] was 0.000101 s⁻¹. In addition, the kon in test [3] turned out to be 26500 M⁻¹ s⁻¹. Also, the values for the ELISA signal with human B7H3, with monkey B7H3-His [4] and with Non-relevant antigen were 2.5, 1.54 and 0.0764, respectively.

B2: RWG8 (VHH)
VHH: DVQLVESGGGLVQPGGSLRLSCAASGFTFSRYWMGWFRQAPGKGVEWVSTINSGGGSTYYADSVKGRFTISRDNAKNTLYLQLNNLKTEDTAMYYCAKEQWRTGSRGQGTQVTVSS
notes: Camel VHH; tag not described; also called camel antibody RWG8
Take B2: the “ELISA reading (name not given)” value with PD-L1 was determined as 0.0653; with B7H3 R&D it was 0.0696; with monkey B7H3-His [1] it was 0.195; with monkey B7H3-His [2], 0.197; with HN3-Fc, 0.0535. Moreover, the ELISA signal in the test with human B7H3 was 2.67; with monkey B7H3-His [4], 2.43; in the test with rat B7H3-His, 2.44; with mouse B7H3-His, 2.47; with Non-relevant antigen, 0.0659.

B3: RWB12 (VHH)
VHH: QVQLVESGGGSVQVGGSLRLSCAASGFTYNSYSVGWFRQAPGKEREGVAAINSGGSSTYYAASVKGRFTISRDNAKNTVYLQMNSLKPEDTAMYYCAARSPSPLTFQTRTLREDSYNYWGQGTQVTVSS
notes: Camel VHH; tag not described; also called camel antibody RWB12
Turning to B3, the “ELISA reading (name not given)” value with PD-L1 is 0.0639; with B7H3 R&D, 0.0582; in the test with monkey B7H3-His [1] it was 0.178; in the test with monkey B7H3-His [2], 0.188; with HN3-Fc it was 0.048. Also, the ELISA signal in the test with human B7H3 came out at 2.74; in the test with monkey B7H3-His [4], 2.31; with rat B7H3-His, 2.07; with Non-relevant antigen it was 0.0597.

B4: RWG4 (VHH)
VHH: QVQLVQSGGGLVQPGGSLRLSCAASGFTFSVYWFYWVRQAPRQGLEWVSTIASNGSTYYSDSVKGRFTISRDNAKNTVYLQMNSLKPEDTAVYYCVSDPDYYSDYERAYKFWAQGTQVTVSS
notes: Camel VHH; tag not described; also called camel antibody RWG4
Regarding B4, the ELISA signal came out at 1.72 in the test with human B7H3; 0.19 with monkey B7H3-His [4]; 0.292 with rat B7H3-His; 0.0665 in the test with mouse B7H3-His; 0.14 with Non-relevant antigen. For the same molecule, the dissociation constant Kd in test [5] amounted to 6.94 nM. In addition, in test [5], the koff worked out at 6.34e-05 s⁻¹. Further, in test [5], the on-rate constant (kon) stood at 9130 M⁻¹ s⁻¹.

Values taken from US20220380471A1 (US Dept. of Health and Human Services, published 2022).
